Data published in the supplement of paper PMC11246515.
± gives the standard deviation of the averaged measurements.

Test: total protein half-life in vivo (active degradation + dilution); higher = more stable protein
[1] = E. coli NCM3722 delta-clpP delta-lon delta-hslV, growth: N-lim chemostat, doubling time 6 h
[2] = E. coli NCM3722 delta-clpP, growth: N-lim chemostat, doubling time 6 h
[3] = E. coli NCM3722 delta-hslV, growth: N-lim chemostat, doubling time 6 h
[4] = E. coli NCM3722 delta-lon, growth: N-lim chemostat, doubling time 6 h
[5] = E. coli NCM3722 delta-smpB, growth: N-lim chemostat, doubling time 6 h
[6] = wild type E. coli NCM3722, growth: C-lim chemostat, doubling time 3 h
[7] = wild type E. coli NCM3722, growth: C-lim chemostat, doubling time 6 h
[8] = wild type E. coli NCM3722, growth: C-lim chemostat, doubling time 12 h
[9] = wild type E. coli NCM3722, growth: N-lim chemostat, doubling time 6 h
[10] = wild type E. coli NCM3722, growth: N-lim chemostat, doubling time 12 h
[11] = wild type E. coli NCM3722, growth: P-lim chemostat, doubling time 6 h
[12] = wild type E. coli NCM3722, growth: P-lim chemostat, doubling time 12 h

Sequence | total protein half-life in vivo [1] | total protein half-life in vivo [2] | total protein half-life in vivo [3] | total protein half-life in vivo [4] | total protein half-life in vivo [5] | total protein half-life in vivo [6] | total protein half-life in vivo [7] | total protein half-life in vivo [8] | total protein half-life in vivo [9] | total protein half-life in vivo [10] | total protein half-life in vivo [11] | total protein half-life in vivo [12]
MKRAFIMVLDSFGIGATEDAERFGDVGADTLGHIAEACAKGEADNGRKGPLNLPNLTRLGLAKAHEGSTGFIPAGMDGNAEVIGAYAWAHEMSSGKDTPSGHWEIAGVPVLFEWGYFSDHENSFPQELLDKLVERANLPGYLGNCHSSGTVILDQLGEEHMKTGKPIFYTSADSVFQIACHEETFGLDKLYELCEIAREELTNGGYNIGRVIARPFIGDKAGNFQRTGNRHDLAVEPPAPTVLQKLVDEKHGQVVSVGKIADIYANCGITKKVKATGLDALFDATIKEMKEAGDNTIVFTNFVDFDSSWGHRRDVAGYAAGLELFDRRLPELMSLLRDDDILILTADHGCDPTWTGTDHTREHIPVLVYGPKVKPGSLGHRETFADIGQTLAKYFGTSDMEYGKAMF [P0A6K6] | 4.63 ± 0.33 h | 4.5 ± 0.27 h | 4.39 ± 0.2 h | 4.1 ± 0.049 h | 3.41 ± 0.21 h | 2.41 ± 0.5 h | 4.68 ± 0.54 h | 9 ± 0.31 h | 4 ± 0.39 h | 6.61 ± 0.31 h | 3.91 ± 0.25 h | 7.26 ± 0.64 h
MFRGATLVNLDSKGRLSVPTRYREQLLENAAGQMVCTIDIYHPCLLLYPLPEWEIIEQKLSRLSSMNPVERRVQRLLLGHASECQMDGAGRLLIAPVLRQHAGLTKEVMLVGQFNKFELWDETTWHQQVKEDIDAEQLATGDLSERLQDLSL | 7.01 ± 0.38 h | 6.48 ± 0.5 h | 6.33 ± 0.068 h | 6.98 ± 0.57 h | 5.69 ± 0.38 h | 3.22 ± 0.08 h | 6.14 ± 0.43 h | 12.19 ± 0.11 h | 5.98 ± 0.57 h | 12.9 ± 0.16 h | 6.8 ± 0.66 h | 14.04 ± 0.07 h
MSDERYQQRQQRVKEKVDARVAQAQDERGIIIVFTGNGKGKTTAAFGTATRAVGHGKKVGVVQFIKGTWPNGERNLLEPHGVEFQVMATGFTWDTQNRESDTAACREVWQHAKRMLADSSLDMVLLDELTYMVAYDYLPLEEVVQALNERPHQQTVIITGRGCHRDILELADTVSELRPVKHAFDAGVKAQIGIDY [P0A9H5] | 4.8 ± 0.41 h | 4.52 ± 0.17 h | 4.27 ± 0.56 h | 5.29 ± 1.2 h | 4.17 ± 0.17 h | 3.41 ± 0.32 h | 5.05 ± 0.13 h | 9.56 ± 0.6 h | 4.235 ± 0.024 h | 6.63 ± 0.33 h | 5.852 ± 0.021 h | 11 ± 0.43 h
MTITSLDGYRWLKNDIIRGNFQPDEKLRMSLLTSRYALGVGPLREALSQLVAERLVTVVNQKGYRVASMSEQELLDIFDARANMEAMLVSLAIARGGDEWEADVLAKAHLLSKLEACDASEKMLDEWDLRHQAFHTAIVAGCGSHYLLQMRERLFDLAARYRFIWLRRTVLSVEMLEDKHDQHQTLTAAVLARDTARASELMRQHLLTPIPIIQQAMAGN | 5.31 ± 0.62 h | 2.81 ± 0.13 h | 2.106 ± 0.011 h | 3.54 ± 0.24 h | 2.18 ± 0.088 h | 1.96 ± 0.16 h | 3.69 ± 0.43 h | 5.04 ± 0.48 h | 1.99 ± 0.21 h | 2.52 ± 0.064 h | 1.56 h | 3.14 ± 1.1 h
MFGKLSLDAVPFHEPIVMVTIAGIILGGLALVGLITYFGKWTYLWKEWLTSVDHKRLGIMYIIVAIVMLLRGFADAIMMRSQQALASAGEAGFLPPHHYDQIFTAHGVIMIFFVAMPFVIGLMNLVVPLQIGARDVAFPFLNNLSFWFTVVGVILVNVSLGVGEFAQTGWLAYPPLSGIEYSPGVGVDYWIWSLQLSGIGTTLTGINFFVTILKMRAPGMTMFKMPVFTWASLCANVLIIASFPILTVTVALLTLDRYLGTHFFTNDMGGNMMMYINLIWAWGHPEVYILILPVFGVFSEIAATFSRKRLFGYTSLVWATVCITVLSFIVWLHHFFTMGAGANVNAFFGITTMIIAIPTGVKIFNWLFTMYQGRIVFHSAMLWTIGFIVTFSVGGMTGVLLAVPGADFVLHNSLFLIAHFHNVIIGGVVFGCFAGMTYWWPKAFGFKLNETWGKRAFWFWIIGFFVAFMPLYALGFMGMTRRLSQQIDPQFHTMLMIAASGAVLIALGILCLVIQMYVSIRDRDQNRDLTGDPWGGRTLEWATSSPPPFYNFAVVPHVHERDAFWEMKEKGEAYKKPDHYEEIHMPKNSGAGIVIAAFSTIFGFAMIWHIWWLAIVGFAGMIITWIVKSFDEDVDYYVPVAEIEKLENQHFDEITKAGLKNGN [P0ABI8] | 6.54 ± 0.5 h |  | 6.89 ± 0.66 h | 6.02 ± 0.071 h | 6.54 ± 0.66 h |  | 5.86 ± 0.97 h | 14.5 ± 0.29 h | 5.84 ± 0.49 h | 11.9 ± 0.69 h | 6.04 ± 0.13 h | 
MDKKQVTDLRSELLDSRFGAKSISTIAESKRFPLHEMRDDVAFQIINDELYLDGNARQNLATFCQTWDDENVHKLMDLSINKNWIDKEEYPQSAAIDLRCVNMVADLWHAPAPKNGQAVGTNTIGSSEACMLGGMAMKWRWRKRMEAAGKPTDKPNLVCGPVQICWHKFARYWDVELREIPMRPGQLFMDPKRMIEACDENTIGVVPTFGVTYTGNYEFPQPLHDALDKFQADTGIDIDMHIDAASGGFLAPFVAPDIVWDFRLPRVKSISASGHKFGLAPLGCGWVIWRDEEALPQELVFNVDYLGGQIGTFAINFSRPAGQVIAQYYEFLRLGREGYTKVQNASYQVAAYLADEIAKLGPYEFICTGRPDEGIPAVCFKLKDGEDPGYTLYDLSERLRLRGWQVPAFTLGGEATDIVVMRIMCRRGFEMDFAELLLEDYKASLKYLSDHPKLQGIAQQNSFKHT | 6.14 ± 0.21 h | 6.13 ± 0.6 h |  | 6.24 ± 0.063 h | 5.24 ± 0.19 h | 3.41 h | 6.25 ± 0.14 h |  | 5.7107 ± 0.00073 h | 10.9 ± 0.24 h | 5.97 ± 0.86 h | 13.1 ± 0.33 h
MAMPLSLLIGLRFSRGRRRGGMVSLISVISTIGIALGVAVLIVGLSAMNGFERELNNRILAVVPHGEIEAVDQPWTNWQEALDHVQKVPGIAAAAPYINFTGLVESGANLRAIQVKGVNPQQEQRLSALPSFVQGDAWRNFKAGEQQIIIGKGVADALKVKQGDWVSIMIPNSNPEHKLMQPKRVRLHVAGILQLSGQLDHSFAMIPLADAQQYLDMGSSVSGIALKMTDVFNANKLVRDAGEVTNSYVYIKSWIGTYGYMYRDIQMIRAIMYLAMVLVIGVACFNIVSTLVMAVKDKSGDIAVLRTLGAKDGLIRAIFVWYGLLAGLFGSLCGVIIGVVVSLQLTPIIEWIEKLIGHQFLSSDIYFIDFLPSELHWLDVFYVLVTALLLSLLASWYPARRASNIDPARVLSGQ | 5.8 ± 0.74 h | 6.23 ± 0.16 h | 5.66 ± 0.51 h | 5.4 ± 0.27 h | 5.77 ± 0.5 h | 3.32 ± 0.27 h | 5.759 ± 0.033 h |  | 5.94 ± 0.43 h | 13.9 ± 2.2 h | 6.023 ± 0.042 h | 12.2 ± 0.26 h
MKVTLPEFERAGVMVVGDVMLDRYWYGPTSRISPEAPVPVVKVNTIEERPGGAANVAMNIASLGANARLVGLTGIDDAARALSKSLADVNVKCDFVSVPTHPTITKLRVLSRNQQLIRLDFEEGFEGVDPQPLHERINQALSSIGALVLSDYAKGALASVQQMIQLARKAGVPVLIDPKGTDFERYRGATLLTPNLSEFEAVVGKCKTEEEIVERGMKLIADYELSALLVTRSEQGMSLLQPGKAPLHMPTQAQEVYDVTGAGDTVIGVLAATLAAGNSLEEACFFANAAAGVVVGKLGTSTVSPIELENAVRGRADTGFGVMTEEELKLAVAAARKRGEKVVMTNGVFDILHAGHVSYLANARKLGDRLIVAVNSDASTKRLKGDSRPVNPLEQRMIVLGALEAVDWVVSFEEDTPQRLIAGILPDLLVKGGDYKPEEIAGSKEVWANGGEVLVLNFEDGCSTTNIIKKIQQDKKG | 5.6 ± 0.12 h | 5.98 ± 1.2 h | 5.19 ± 0.094 h | 5.89 ± 0.14 h | 5.15 ± 0.11 h | 3.1 ± 0.062 h | 5.74 ± 0.21 h | 11.032 ± 0.011 h | 5.3 ± 0.34 h | 9.17 ± 0.1 h | 5.82 ± 0.12 h | 12.3 ± 0.15 h
MQRLFLLVAVMLLSGCLTAPPKEAARPTLMPRAQSYKDLTHLPAPTGKIFVSVYNIQDETGQFKPYPASNFSTAVPQSATAMLVTALKDSRWFIPLERQGLQNLLNERKIIRAAQENGTVAINNRIPLQSLTAANIMVEGSIIGYESNVKSGGVGARYFGIGADTQYQLDQIAVNLRVVNVSTGEILSSVNTSKTILSYEVQAGVFRFIDYQRLLEGEVGYTSNEPVMLCLMSAIETGVIFLINDGIDRGLWDLQNKAERQNDILVKYRHMSVPPES [P0AEA2] |  |  |  |  |  |  |  |  |  | 4.39 h |  | 
MVKERKTELVEGFRHSVPYINTHRGKTFVIMLGGEAIEHENFSSIVNDIGLLHSLGIRLVVVYGARPQIDANLAAHHHEPLYHKNIRVTDAKTLELVKQAAGTLQLDITARLSMSLNNTPLQGAHINVVSGNFIIAQPLGVDDGVDYCHSGRIRRIDEDAIHRQLDSGAIVLMGPVAVSVTGESFNLTSEEIATQLAIKLKAEKMIGFCSSQGVTNDDGDIVSELFPNEAQARVEAQEEKGDYNSGTVRFLRGAVKACRSGVRRCHLISYQEDGALLQELFSRDGIGTQIVMESAEQIRRATINDIGGILELIRPLEQQGILVRRSREQLEMEIDKFTIIQRDNTTIACAALYPFPEEKIGEMACVAVHPDYRSSSRGEVLLERIAAQAKQSGLSKLFVLTTRSIHWFQERGFTPVDIDLLPESKKQLYNYQRKSKVLMADLG [P0A6C5] | 4.95 ± 0.5 h | 3.02 ± 0.23 h | 2.23 ± 0.15 h | 3.628 ± 0.028 h | 1.13 ± 0.066 h | 1.99 ± 0.036 h | 3.29 ± 0.41 h | 5.24 ± 0.21 h | 2.59 ± 0.25 h | 4.01 ± 0.54 h | 4.56 ± 0.38 h | 8.35 ± 0.32 h
MNTTLFRWPVRVYYEDTDAGGVVYHASYVAFYERARTEMLRHHHFSQQALMAERVAFVVRKMTVEYYAPARLDDMLEIQTEITSMRGTSLVFTQRIVNAENTLLNEAEVLVVCVDPLKMKPRALPKSIVAEFKQ [P0A8Z3] | 5.87 ± 0.51 h | 6.54 ± 0.91 h | 6.41 ± 0.61 h | 6.27 ± 0.26 h | 5.7 ± 0.13 h |  | 5.99 ± 0.073 h | 11.1 ± 2.1 h | 5.28 ± 0.094 h | 12.3 ± 2.7 h | 5.68 ± 0.45 h | 12.63 ± 0.092 h
